The text below walks through data of publication PMC5045296.

For experiment [1], the target named is tubulin (alpha/beta heterodimer), polymerised into microtubules or as free tubulin-dimers (porcine) (UniProt P02550).
For experiment [2] the target is unchanged. As to the kind of experiment: co-sedimentation; KIF19A protein (printed 'Two micromoles') with 0-40 μM taxol-stabilized MTs in PEM buffer, 25°C, 15 min, AMP-PNP; 38,000 xg 10 min; SDS-PAGE band intensities; one site binding model.
The target is the same in experiment [3]. The source holds these as a separate data set.
Experiment [4] has the same target. This is another data set of the same source.
Experiment [5] has the same target. This is another data set of the same source.
Experiment [6] has the same target. This is another data set of the same source.

Numbering of substitutions follows the chain as printed. Numbers in names are those of the source.

B1: KIF19A-353 (mouse KIF19A motor domain, monomeric construct) (domain or fragment)
chain: MKDSGDSKDQQLMVALRVRPISVAELEEGATLIAHKMDEQMVVLMDPMEDPDDILRAHRSREKSYLFDVAFDFTATQEMVYQATTKSLIEGVISGYNATVFAYGPTGCGKTYTMLGTDHEPGIYVRTLNDLFRAIEETSNDMEYEVSMSYLEIYNEMIRDLLNPALGYLELREDSKGVIQVAGITEVSTINAKEIMQLLMKGNRQRTQEPTAANQTSSRSHAVLQVAVRQRSRVKNILQEVRQGRLFMIDLAGSERASQTQNRGQRMKEGAHINRSLLALGNCINALSDKGSNKYINYRDSKLTRLLKDSLGGNSRTVMIAHISPASTAFEESRNTLTYAGRAKNIRTRVKQN
In experiment [1], B1 gave an MT-stimulated steady-state ATPase, maximum rate of 1.43 s⁻¹ and a steady-state ATPase stimulated by free tubulin-dimers, maximum rate of 0.8 s⁻¹. The same molecule gave a Kd in experiment [2] of 600 nM.

B2: KIF19A-353 L55A (domain or fragment)
chain: B1 chain with L55A
B2 came in with a Kd in experiment [2] of 1600 nM.

B3: KIF19A-353 PC2A (R56A-H58A-R59A-R61A) (domain or fragment)
chain: B1 chain with R56A, H58A, R59A, R61A
On to B3, for which the K (M, MT) of the MT-stimulated ATPase, against 353WT (times that of 353WT) in experiment [3] came out at 30. Further, the dissociation constant Kd in experiment [2] amounted to 5800 nM.

B4: KIF19A-353 GS2R (G291 and S292 mutated to arginine) (domain or fragment)
chain: B1 chain with G291R, S292R
In experiment [4], B4 returned a Michaelis-Menten constant of the ATPase for MTs and for tubulins, against 353WT (times lower than 353WT) of 4. The Kd in experiment [2] is 600 nM.

B5: KIF19A-353 K2A (K290 and K294 replaced with alanine) (domain or fragment)
chain: B1 chain with K290A, K294A
In experiment [5], B5 gave an EC50 of depolymerization of GMPCPP-stabilized MTs (5 mM ATP) of 678 nM and an MT depolymerization speed (TIRF, 125 nM motor) of 2 nm/s. In addition, the Kd in experiment [2] turned out to be 3000 nM.

B6: KIF19A-353 N297P (domain or fragment)
chain: B1 chain with N297P
In experiment [6], B6 registered a tubulin-stimulated ATPase rate, against the wild type (of the wild type) of 0.5.
